The values below are quoted from earlier work in paper PMC7343451.

The data set has as its target SARS-CoV-2 spike RBD (Severe acute respiratory syndrome coronavirus 2) (UniProt P0DTC2).

What is called Kd is a measure of binding affinity in units of concentration. Turning to “hACE2 peptide 21-43 (from UniProt Q9BYF1)”, the Kd was 47 nM.
